Assay results as given in PMC13078783, “Kinesin-1 conformational dynamics are controlled by a cargo-sensitive TPR switch” (eLife, 2026).
No end group written: not given here.

Experiments:
KLC1 TPR domain = molecular target: T1, KLC1 TPR domain; experiment: fluorescence polarisation; TAMRA-conjugated peptide at 150 nM, increasing KLC1/2 TPR protein (typically 0–25 μM); 25 mM HEPES pH 7.4, 5 mM β-mercaptoethanol, 150 mM NaCl; room temperature; one-site specific binding model; conditions: both partners purified
T1 construct: also called isolated TPR domains; KLC-1 TPR protein; source: E. coli BL21(DE3), purified (His-Trap, SEC)

KLC2 TPR domain = molecular target: T2, KLC2 TPR domain; experiment: as above; conditions: both partners purified
T2 construct: kinesin light chain 2 (KLC2), TPR domain, residues A196-K480, in pET28His-Thrombin; source: E. coli BL21(DE3), purified (His-Trap, SEC)

[1] = molecular target: the molecule itself; experiment: AUC; sedimentation equilibrium, 20 °C, PBS, 100 μM total peptide, 44–60 krpm, single ideal species model

Kd (KLC1 TPR domain): ~25 µM | Kd (KLC2 TPR domain): 2.7 µM
Binder: ENEALKDEVKELLQALEELAVNYDQLSQ-NH2 (also: TAMRA-conjugated, position not given here) [Eng-TDS]
stoichiometry N [1]: 2
